Patent US20110177003A1 (CENTRE NATIONAL DE LA RECHERCHE SCIENTIFIQUE, published 2011)

Tests used:
IFP1.2 = test: multiple angle light scattering at 785 nm; self-association (homodimer)
[1] = biological target: the molecule itself; test: size exclusion chromatography; self-association (homodimer)

IFP1.2
apparent molecular weight (IFP1.2): 80 kDa

B1: IFP1.0 (DrCBD, 321 amino acids, with the D207H mutation) (other)
chain: MSRDPLPFFPPLYLGGPEITTENCEREPIHIPGSIQPHGALLTADGHSGEVLQMSLNAATFLGQEPTVLRGQTLAALLPEQWPALQAALPPGCPDALQYRATLDWPAAGHLSLTVHRVGELLILEFEPTEAWDSTGPHALRNAMFALESAPNLRALAEVATQTVRELTGFDRVMLYKFAPDATGEVIAEARREGLHAFLGHRFPASHIPAQARALYTRHLLRLTADTRAAAVPLDPVLNPQTNAPTPLGGAVLRATSPMHMQYLRNMGVGSSLSVSVVVGGQLWGLIACHHQTPYVLPPDLRTTLEYLGRLLSLQVQVKEA
modifications: biliverdin chromophore covalently incorporated (residue not stated)
notes: Engineered bacteriophytochrome fragment, reported as a homodimer; also called DrCBD/D207H; drCBD/D207H
binding result [1]: binds
